Reference: patent publication US20220016130A1 (MAYO FOUNDATION FOR MEDICAL EDUCATION AND RESEARCH, published 2022)

Columns and labels:
BRD3 = molecular target: T1, BRD3 (human, UniProt Q15059 1-726); test: co-IP, ectopic in 293T and endogenous in LNCaP cells
T1 construct: One entry covers endogenous and FLAG-tagged full-length BRD3; also called FLAG-BRD3; Flag-BRD3
Description: (§1) To immunoprecipitate the ectopically expressed FLAG-tagged proteins, transfected cells were lysed 24 hours post-transfection in BC100 buffer. The whole-cell lysates were immunoprecipitated with the monoclonal anti-FLAG antibody-conjugated M2 agarose beads (Sigma-Aldrich) at 4° C. overnight. After three washes with lysis buffer, followed by two washes with BC100 buffer, the bound proteins were eluted using FLAG-Peptide (Sigma-Aldrich) prepared in BC100 for 3 hours at 4° C. The eluted protein sample was resolved by SDS-PAGE. To immunoprecipitate the endogenous proteins, cells were lysed with 1× cell lysis buffer (Cell Signaling Technology), and the lysate was centrifuged. The supernatant was precleared with protein A/G beads (Sigma-Aldrich) and incubated with the indicated antibody and protein A/G beads at 4° C. overnight. Beads were washed five times with lysis buffer and resuspended in sample buffer and analyzed by SDS-PAGE.

BRD2 = molecular target: T2, BRD2 (human, UniProt P25440 1-801); test: figure legend title; yeast two-hybrid and co-IP
T2 construct: One entry covers endogenous and FLAG-tagged full-length BRD2; also called FLAG-BRD2; Flag-BRD2
Description: (§2) A total of 2×10⁷ independent clones were screened by growth in deficient medium and X-gal staining. The positive clones were subsequently retested in fresh yeast cells, and the identities of prey were determined with interaction sequence tags (ISTs) obtained by DNA sequencing. The reading frame was verified.
as §1

[1] = molecular target: T3, BRD2 SBC motif-deleted mutant (human, UniProt P25440 1-801, limits assumed); test: co-IP (anti-FLAG) in 293T cells
T3 construct: The deleted residues are not numbered in the text; also called FLAG-BRD2 mutant; not shown: FLAG tag

[2] = molecular target: T4, BRD3 SBC motif-deleted mutant (human, UniProt Q15059 1-726, limits assumed); test: co-IP (anti-FLAG) in 293T cells
T4 construct: The deleted residues are not numbered in the text; also called FLAG-BRD3 mutant; not shown: FLAG tag

[3] = molecular target: T5, BRD4 SBC motif-deleted mutant (human, UniProt O60885 1-1362, limits assumed); test: co-IP (anti-FLAG) in 293T cells
T5 construct: The deleted residues are not numbered in the text; also called FLAG-BRD4 mutant; not shown: FLAG tag

SRC-3 = molecular target: T6, SRC-3 (human, UniProt Q9Y6Q9 2-1424, limits assumed); test: yeast two-hybrid screen, human fetal brain cDNA library
T6 construct: Positive clone of the yeast two-hybrid screen
Description: as §2

DEK = molecular target: T7, DEK (human, UniProt P35659 2-375, limits assumed); test: as above
T7 construct: Positive clone of the yeast two-hybrid screen
T7 sequence (looked up): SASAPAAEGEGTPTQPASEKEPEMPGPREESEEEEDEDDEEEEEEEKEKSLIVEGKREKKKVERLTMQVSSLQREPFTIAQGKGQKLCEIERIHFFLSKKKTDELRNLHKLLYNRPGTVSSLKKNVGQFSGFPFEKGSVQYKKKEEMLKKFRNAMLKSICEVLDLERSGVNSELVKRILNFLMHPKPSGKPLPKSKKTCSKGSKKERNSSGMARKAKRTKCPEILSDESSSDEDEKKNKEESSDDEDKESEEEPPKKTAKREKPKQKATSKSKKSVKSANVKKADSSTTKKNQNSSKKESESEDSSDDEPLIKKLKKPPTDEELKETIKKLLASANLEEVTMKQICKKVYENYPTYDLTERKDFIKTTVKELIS
Description: as §2

B1: SPOP (speckle-type POZ polypeptide), wild-type (other, human, UniProt O43791 1-374, looked up)
chain: MSRVPSPPPPAEMSSGPVAESWCYTQIKVVKFSYMWTINNFSFCREEMGEVIKSSTFSSGANDKLKWCLRVNPKGLDEESKDYLSLYLLLVSCPKSEVRAKFKFSILNAKGEETKAMESQRAYRFVQGKDWGFKKFIRRDFLLDEANGLLPDDKLTLFCEVSVVQDSVNISGQNTMNMVKVPECRLADELGGLWENSRFTDCCLCVAGQEFQAHKAILAARSPVFSAMFEHEMEESKKNRVEINDVEPEVFKEMMCFIYTGKAPNLDKMADDLLAAADKYALERLKVMCEDALCSNLSVENAAEILILADLHSADQLKTQAVDFINYHASDVLETSGWKSMVVSHPHLVAEAYRSLASAQCPFLGPPRKRLKQS
notes: also called SPOP-WT; wild-type SPOP
B1: binds (BRD3); binds (BRD2); no binding [1]. B1: no binding [2]; no binding [3]; binds (SRC-3). B1: binds (DEK).
